Earlier results as cited in PMC3134397.

How the values were obtained:
[1] = biological target: UL18 (Human betaherpesvirus 5) (UniProt P08560); test: SPR
RAE-1β (Mus musculus) = RAE-1β (Mus musculus) (UniProt O08603); test: AUC
RAE-1γ (Mus musculus) = RAE-1γ (Mus musculus) (UniProt O08604); test: AUC
RAE-1δ (Mus musculus) = RAE-1δ (Mus musculus) (UniProt Q9JI58); test: AUC
Chain of UniProt Q9JI58 (Q9JI58 29-225, stated change not applied): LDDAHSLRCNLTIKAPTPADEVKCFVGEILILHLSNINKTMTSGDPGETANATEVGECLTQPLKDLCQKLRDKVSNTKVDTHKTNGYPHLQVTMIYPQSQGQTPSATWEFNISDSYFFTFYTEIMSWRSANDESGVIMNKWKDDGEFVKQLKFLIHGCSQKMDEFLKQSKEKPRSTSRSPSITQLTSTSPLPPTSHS

Chain of UniProt O08604 (O08604 29-227): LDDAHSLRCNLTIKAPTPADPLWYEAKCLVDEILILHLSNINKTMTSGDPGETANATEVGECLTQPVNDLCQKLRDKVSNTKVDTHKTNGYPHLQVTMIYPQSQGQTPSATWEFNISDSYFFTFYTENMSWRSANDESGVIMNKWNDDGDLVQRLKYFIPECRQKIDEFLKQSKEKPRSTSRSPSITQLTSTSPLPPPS
Chain of UniProt O08603 (O08603 29-229): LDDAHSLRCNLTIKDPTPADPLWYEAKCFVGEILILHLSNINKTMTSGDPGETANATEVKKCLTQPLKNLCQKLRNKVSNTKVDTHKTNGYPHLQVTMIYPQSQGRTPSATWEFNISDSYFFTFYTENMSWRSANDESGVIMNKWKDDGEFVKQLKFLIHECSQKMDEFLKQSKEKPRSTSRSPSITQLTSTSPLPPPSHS

Substance	Kd [1]	Kd (RAE-1β (Mus musculus))	Kd (RAE-1γ (Mus musculus))	Kd (RAE-1δ (Mus musculus))
LIR1 (from UniProt Q8NHL6)	0.01 µM	–	–	–
m152 (from UniProt Q83156)	–	3 µM	1 µM	30 µM
